Experimental data reported in patent CN114195889A (NANJING FUJIEKANG BIOTECHNOLOGY CO LTD, dated 2022).

Biological target: T1, 人源重组SARS-Cov-2-N蛋白 (SARS-CoV-2, UniProt P0DTC9 1-419)
T1 construct: range 1-419; also called SARS-Cov-2-N重组蛋白; 新冠病毒N蛋白
Assay: ELISA dose-response on coated N protein

B1: 纳米抗体1B2 (VHH)
VHH: ESGGGSVQAGGSLKLSCVAFGYTYTSGCMGWFRQAPGKGREGVATICNTDGTTAYANSVKGRFTISQDNAKNTVYLQMNSLKAEDSAMYYCAAGRTPYELASGGKNWGQGTQVTVSS
notes: also called VHH4
B1: binds.
